{
  "source": "the RNAGym collection of RNA variant scans (doi:10.1101/gr.219683.116)",
  "parents": {"B1": {"name": "mRNA-splicing (parent)", "chain": "AGUUGCUGCUGGGAGCUCCAGCACAGUGAAAUGGACAGAAGGGCAGAGCAA"}},
  "data": [
    {"variants_of": "B1", "test": "exon inclusion enrichment index; higher = more inclusion; WT1 exon 5 minigene, HEK293", "values": [
      {"variant": "AGUUGACACAGGGAGCUCCAGCACAGUGAAAUGGACAGAAGGGCAGAGCAA", "note": "[C6A U7C G8A U10A]", "exon inclusion enrichment index": 0.127},
      {"variant": "AGUUAGGGAUGGGAGCUCCAGCACAGUGAUCUGGACAGAAGGGCAGAGCAA", "note": "[G5A C6G U7G C9A A30U A31C]", "exon inclusion enrichment index": 0.00225},
      {"variant": "AGUUAGGGAUGGGAGCUCCAGCACAGUGAAAUGGACAGAAGGGUAGAGCAA", "note": "[G5A C6G U7G C9A C44U]", "exon inclusion enrichment index": 0.000609},
      {"variant": "AGUUGAAGAAGGGAGCUCGUGCACAGUGAAAUGGACAGAAGGGCAGAGCAA", "note": "[C6A U7A C9A U10A C19G A20U]", "exon inclusion enrichment index": 0.62},
      {"variant": "AGUUCGCAGCGGGAGCUCCAGCACAGUGAAAUGGACAGAAGGGCAGAGCAA", "note": "[G5C C6G U7C G8A C9G U10C]", "exon inclusion enrichment index": 2.31},
      {"variant": "AGUUUCUUUUGGGAGCUCGGGCACAGUGAAAUGGACAGAAGGGCAGAGCAA", "note": "[G5U G8U C9U C19G A20G]", "exon inclusion enrichment index": 0.0362},
      {"variant": "AGUUGACAACGGGAGCUCCAGCACAGUGAAAUGGACAGAAGGGCAGAGCAA", "note": "[C6A U7C G8A C9A U10C]", "exon inclusion enrichment index": 2.62},
      {"variant": "AGUUCUUCUCGGGAGCUCCAGCACAGUGAAAUGGACAGAAGAUCAGAGCAA", "note": "[G5C C6U G8C C9U U10C G42A G43U]", "exon inclusion enrichment index": 3.86},
      {"variant": "AGUUCGCCUCGGGAGCUCCAGCACAGUGAAAUGGACAGAAGGGCAGAGCAA", "note": "[G5C C6G U7C G8C C9U U10C]", "exon inclusion enrichment index": 2.8},
      {"variant": "AGUUGUAGACGGGAGCUCCAGCACAGUGAAAUGGACAGAAGGGCAGAGCAA", "note": "[C6U U7A C9A U10C]", "exon inclusion enrichment index": 0.322},
      {"variant": "AGCAGAAGAAGGGAGCUCCAGCACAGUGAAAUGGACAGAAGGGCAGAGCAA", "note": "[U3C U4A C6A U7A C9A U10A]", "exon inclusion enrichment index": 0.528},
      {"variant": "AGUUUCUUUUGGGAGCUCCAGCACAGUGAAAUGGACAGAAGUACAGAGCAA", "note": "[G5U G8U C9U G42U G43A]", "exon inclusion enrichment index": 0.451},
      {"variant": "AGUUCGCGCCGGGAGCUCCAGCACAGUGAAAUGGACAGAAGGGCAUUGCAA", "note": "[G5C C6G U7C U10C G46U A47U]", "exon inclusion enrichment index": 3.93},
      {"variant": "AGUUAGGGUUGGGAGCUCCAGCACAGUGAAAUGGACAGAAGGGCAGAGCAA", "note": "[G5A C6G U7G C9U]", "exon inclusion enrichment index": 0.00241},
      {"variant": "AGUUACCACCGGGAGCUCCAGCACAGUGAAAUGGACAUCAGGGCAGAGCAA", "note": "[G5A U7C G8A U10C G38U A39C]", "exon inclusion enrichment index": 1.83},
      {"variant": "AGUUUCUUUUGGGAGCUCCAGCACAGUGCGAUGGACAGAAGGGCAGAGCAA", "note": "[G5U G8U C9U A29C A30G]", "exon inclusion enrichment index": 0.414},
      {"variant": "AGUUUCUUUUGGGAGCUCCAGCACAGUGAAAUGGGAAGAAGGGCAGAGCAA", "note": "[G5U G8U C9U A35G C36A]", "exon inclusion enrichment index": 0.0301},
      {"variant": "AGUUAUAUAUUAGAGCUCCAGCACAGUGAAAUGGACAGAAGGGCAGAGCAA", "note": "[G5A C6U U7A G8U C9A G11U G12A]", "exon inclusion enrichment index": 0.00404},
      {"variant": "AGUUGGUUUUGGGAGCUCCAGCACAGUGAAAUGGACAGAAGGGCAGAGCAA", "note": "[C6G G8U C9U]", "exon inclusion enrichment index": 0.101},
      {"variant": "AGUUGCCGCUGGGAGCUCCAGCACAGUGAAAUGGACAGAAGGGCAGAGCAA", "note": "[U7C]", "exon inclusion enrichment index": 0.538},
      {"variant": "AGUUGAAGAAGGGAGCUCCAGCACAGUGAAAGGGACAGAAGGGCAGAGCAA", "note": "[C6A U7A C9A U10A U32G]", "exon inclusion enrichment index": 0.041},
      {"variant": "ACUUAUAUAUGGGAGCUCCAGCACAGUGAAAUGGACAGAAGGGCAGAGCAA", "note": "[G2C G5A C6U U7A G8U C9A]", "exon inclusion enrichment index": 0.0726},
      {"variant": "AAAUGCUGCUGGGAGCUCCAGCACAGUGAAAUGGACAGAAGGGCAGAGCAA", "note": "[G2A U3A]", "exon inclusion enrichment index": 0.0502},
      {"variant": "AGUUACCACCGGGAGCUCCAGCACAGUGAAAUGGACAGAAGUGCAGAGCAA", "note": "[G5A U7C G8A U10C G42U]", "exon inclusion enrichment index": 2.55},
      {"variant": "AGUUAUAUAUGGGAGCUCCAGCACAGUCCAAUGGACAGAAGGGCAGAGCAA", "note": "[G5A C6U U7A G8U C9A G28C A29C]", "exon inclusion enrichment index": 0.0748},
      {"variant": "AGUCUCUGCUGGGAGCUCCAGCACAGUGAAAUGGACAGAAGGGCAGAGCAA", "note": "[U4C G5U]", "exon inclusion enrichment index": 0.105},
      {"variant": "AGUUACCACCGGUAGCUCCAGCACAGUGAAAUGGACAGAAGGGCAGAGCAA", "note": "[G5A U7C G8A U10C G13U]", "exon inclusion enrichment index": 0.0615},
      {"variant": "AGGGGCUGCUGGGAGCUCCAGCACAGUGAAAUGGACAGAAGGGCAGAGCAA", "note": "[U3G U4G]", "exon inclusion enrichment index": 0.00805},
      {"variant": "AUGUUCUUUUGGGAGCUCCAGCACAGUGAAAUGGACAGAAGGGCAGAGCAA", "note": "[G2U U3G G5U G8U C9U]", "exon inclusion enrichment index": 0.724},
      {"variant": "AGUUCUUCUCGGGAGCUCCAGCACAGUGAAAUGGACAGAGCGGCAGAGCAA", "note": "[G5C C6U G8C C9U U10C A40G G41C]", "exon inclusion enrichment index": 3.24},
      {"variant": "AGUUGCUGUUGGGAGCUCCAGCACAGUGAAAUGGACAGAAGGGCAGAGCAA", "note": "[C9U]", "exon inclusion enrichment index": 1.36},
      {"variant": "AGUUGCUGGUGGGAGCUCCAGCACAGUGAAAUGGACAGAAGGGCAGAGCAA", "note": "[C9G]", "exon inclusion enrichment index": 0.154},
      {"variant": "AGUUGCUGCUGGGAGCUCCAGCACAGUGAAAUGGACAAAAGGGCAGAGCAA", "note": "[G38A]", "exon inclusion enrichment index": 0.0459},
      {"variant": "AGUUAGGGAUGGGAGCUCCAGCACAGUGAAAUGAUCAGAAGGGCAGAGCAA", "note": "[G5A C6G U7G C9A G34A A35U]", "exon inclusion enrichment index": 0.00125},
      {"variant": "AGUUCUUCUCGGGAGCUCCAGCACAGUGAAAUGGACAGAAGGCAAGAGCAA", "note": "[G5C C6U G8C C9U U10C G43C C44A]", "exon inclusion enrichment index": 3.17},
      {"variant": "AGUUGCUGCUGGGUUCUCCAGCACAGUGAAAUGGACAGAAGGGCAGAGCAA", "note": "[A14U G15U]", "exon inclusion enrichment index": 0.0223},
      {"variant": "AGUUACCACCGGGAGCUCCAGCACAGUGAAAUGGACAGAAGGGAAGAGCAA", "note": "[G5A U7C G8A U10C C44A]", "exon inclusion enrichment index": 3.82},
      {"variant": "AGUUCACACAUCGAGCUCCAGCACAGUGAAAUGGACAGAAGGGCAGAGCAA", "note": "[G5C C6A U7C G8A U10A G11U G12C]", "exon inclusion enrichment index": 0.543},
      {"variant": "AGUUCACACAGGGAGCUCCAGCACAGUGAAAUGGACAGAAGGGCAGGGCAA", "note": "[G5C C6A U7C G8A U10A A47G]", "exon inclusion enrichment index": 0.0221},
      {"variant": "AGUUGAAGAAGUGAGCUCCAGCACAGUGAAAUGGACAGAAGGGCAGAGCAA", "note": "[C6A U7A C9A U10A G12U]", "exon inclusion enrichment index": 0.96},
      {"variant": "AGGGGACGACGGGAGCUCCAGCACAGUGAAAUGGACAGAAGGGCAGAGCAA", "note": "[U3G U4G C6A U7C C9A U10C]", "exon inclusion enrichment index": 1.23},
      {"variant": "AGUUGAAGUGGGGAGCUCCAGCACAGUGAAAUGGACAGAAGGGCAGAGCAA", "note": "[C6A U7A C9U U10G]", "exon inclusion enrichment index": 0.0647},
      {"variant": "AGUUCGCGCCGGGAGCUCCUCCACAGUGAAAUGGACAGAAGGGCAGAGCAA", "note": "[G5C C6G U7C U10C A20U G21C]", "exon inclusion enrichment index": 2.93},
      {"variant": "AGUUCGCGAAGGGAGCUCCAGCACAGUGAAAUGGACAGAAGGGCAGAGCAA", "note": "[G5C C6G U7C C9A U10A]", "exon inclusion enrichment index": 1.93},
      {"variant": "AGUUCUUCUCGGGAGCUCCAGCACAGUGGAAUGGACAGAAGGGCAGAGCAA", "note": "[G5C C6U G8C C9U U10C A29G]", "exon inclusion enrichment index": 2.54},
      {"variant": "AGUUACCACCGGGAGCUCCAGCACAGUGAUUUGGACAGAAGGGCAGAGCAA", "note": "[G5A U7C G8A U10C A30U A31U]", "exon inclusion enrichment index": 1.86},
      {"variant": "AGUUCUUCUCGGGAGCUCCAGCACAGUGAAAUGGACAGCGGGGCAGAGCAA", "note": "[G5C C6U G8C C9U U10C A39C A40G]", "exon inclusion enrichment index": 2.03},
      {"variant": "AGUUAGGGAUGGGAGACCCAGCACAGUGAAAUGGACAGAAGGGCAGAGCAA", "note": "[G5A C6G U7G C9A C16A U17C]", "exon inclusion enrichment index": 0.00344},
      {"variant": "AGUUAGGGAUGGGAGCUCAGGCACAGUGAAAUGGACAGAAGGGCAGAGCAA", "note": "[G5A C6G U7G C9A C19A A20G]", "exon inclusion enrichment index": 0.00156},
      {"variant": "AGUUCUUCUCGGGAGAACCAGCACAGUGAAAUGGACAGAAGGGCAGAGCAA", "note": "[G5C C6U G8C C9U U10C C16A U17A]", "exon inclusion enrichment index": 1.38},
      {"variant": "AGUUAGGGAUGGGAGCUCCAGCACAGUGAAAUCGACAGAAGGGCAGAGCAA", "note": "[G5A C6G U7G C9A G33C]", "exon inclusion enrichment index": 0.00196}
    ]}
  ]
}
